Columns and labels:
[1] = molecular target: T1, MBNL1 (Mus musculus, UniProt G3X9Q0 1-381); assay: EMSA; 1 mM Mg2+; EMSA: 40 mM Tris-Cl pH 8.0, 30 mM KCl, 1 mM MgCl2, 0.01% NP-40, 1 mM DTT, 5% glycerol, 10 ug/ml BSA, 30 min room temperature; pull-down: nuclear extract in 50 mM Tris pH 7.4, 150 mM NaCl, 1 mM EDTA, 0.5% NP-40, 4 h at 4 C; details: protein: recombinant; tags: N-terminal 3xFLAG-2xSTREP; label: 5' 32P (probe)
T1 sequence: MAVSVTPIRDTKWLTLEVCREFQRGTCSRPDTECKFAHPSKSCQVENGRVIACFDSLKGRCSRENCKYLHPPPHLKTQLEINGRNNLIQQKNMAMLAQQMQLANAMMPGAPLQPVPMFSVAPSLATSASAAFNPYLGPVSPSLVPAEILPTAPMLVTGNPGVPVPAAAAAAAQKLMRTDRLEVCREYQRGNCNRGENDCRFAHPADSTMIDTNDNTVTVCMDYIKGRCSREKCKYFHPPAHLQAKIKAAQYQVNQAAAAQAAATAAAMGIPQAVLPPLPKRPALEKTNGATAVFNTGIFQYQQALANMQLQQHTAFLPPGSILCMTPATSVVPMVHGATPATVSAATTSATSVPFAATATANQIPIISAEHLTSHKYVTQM

[2] = molecular target: T2, Zfp106 (Mus musculus, UniProt O88466 1-1888); assay: EMSA; 1 mM Mg2+; competed by 30x unlabeled self; EMSA: 40 mM Tris-Cl pH 8.0, 30 mM KCl, 1 mM MgCl2, 0.01% NP-40, 1 mM DTT, 5% glycerol, 10 ug/ml BSA, 30 min room temperature; pull-down: nuclear extract in 50 mM Tris pH 7.4, 150 mM NaCl, 1 mM EDTA, 0.5% NP-40, 4 h at 4 C; details: protein: recombinant; tags: N-terminal 3xFLAG-2xSTREP; label: 5' 32P (probe)
T2 sequence (O88466 whole entry): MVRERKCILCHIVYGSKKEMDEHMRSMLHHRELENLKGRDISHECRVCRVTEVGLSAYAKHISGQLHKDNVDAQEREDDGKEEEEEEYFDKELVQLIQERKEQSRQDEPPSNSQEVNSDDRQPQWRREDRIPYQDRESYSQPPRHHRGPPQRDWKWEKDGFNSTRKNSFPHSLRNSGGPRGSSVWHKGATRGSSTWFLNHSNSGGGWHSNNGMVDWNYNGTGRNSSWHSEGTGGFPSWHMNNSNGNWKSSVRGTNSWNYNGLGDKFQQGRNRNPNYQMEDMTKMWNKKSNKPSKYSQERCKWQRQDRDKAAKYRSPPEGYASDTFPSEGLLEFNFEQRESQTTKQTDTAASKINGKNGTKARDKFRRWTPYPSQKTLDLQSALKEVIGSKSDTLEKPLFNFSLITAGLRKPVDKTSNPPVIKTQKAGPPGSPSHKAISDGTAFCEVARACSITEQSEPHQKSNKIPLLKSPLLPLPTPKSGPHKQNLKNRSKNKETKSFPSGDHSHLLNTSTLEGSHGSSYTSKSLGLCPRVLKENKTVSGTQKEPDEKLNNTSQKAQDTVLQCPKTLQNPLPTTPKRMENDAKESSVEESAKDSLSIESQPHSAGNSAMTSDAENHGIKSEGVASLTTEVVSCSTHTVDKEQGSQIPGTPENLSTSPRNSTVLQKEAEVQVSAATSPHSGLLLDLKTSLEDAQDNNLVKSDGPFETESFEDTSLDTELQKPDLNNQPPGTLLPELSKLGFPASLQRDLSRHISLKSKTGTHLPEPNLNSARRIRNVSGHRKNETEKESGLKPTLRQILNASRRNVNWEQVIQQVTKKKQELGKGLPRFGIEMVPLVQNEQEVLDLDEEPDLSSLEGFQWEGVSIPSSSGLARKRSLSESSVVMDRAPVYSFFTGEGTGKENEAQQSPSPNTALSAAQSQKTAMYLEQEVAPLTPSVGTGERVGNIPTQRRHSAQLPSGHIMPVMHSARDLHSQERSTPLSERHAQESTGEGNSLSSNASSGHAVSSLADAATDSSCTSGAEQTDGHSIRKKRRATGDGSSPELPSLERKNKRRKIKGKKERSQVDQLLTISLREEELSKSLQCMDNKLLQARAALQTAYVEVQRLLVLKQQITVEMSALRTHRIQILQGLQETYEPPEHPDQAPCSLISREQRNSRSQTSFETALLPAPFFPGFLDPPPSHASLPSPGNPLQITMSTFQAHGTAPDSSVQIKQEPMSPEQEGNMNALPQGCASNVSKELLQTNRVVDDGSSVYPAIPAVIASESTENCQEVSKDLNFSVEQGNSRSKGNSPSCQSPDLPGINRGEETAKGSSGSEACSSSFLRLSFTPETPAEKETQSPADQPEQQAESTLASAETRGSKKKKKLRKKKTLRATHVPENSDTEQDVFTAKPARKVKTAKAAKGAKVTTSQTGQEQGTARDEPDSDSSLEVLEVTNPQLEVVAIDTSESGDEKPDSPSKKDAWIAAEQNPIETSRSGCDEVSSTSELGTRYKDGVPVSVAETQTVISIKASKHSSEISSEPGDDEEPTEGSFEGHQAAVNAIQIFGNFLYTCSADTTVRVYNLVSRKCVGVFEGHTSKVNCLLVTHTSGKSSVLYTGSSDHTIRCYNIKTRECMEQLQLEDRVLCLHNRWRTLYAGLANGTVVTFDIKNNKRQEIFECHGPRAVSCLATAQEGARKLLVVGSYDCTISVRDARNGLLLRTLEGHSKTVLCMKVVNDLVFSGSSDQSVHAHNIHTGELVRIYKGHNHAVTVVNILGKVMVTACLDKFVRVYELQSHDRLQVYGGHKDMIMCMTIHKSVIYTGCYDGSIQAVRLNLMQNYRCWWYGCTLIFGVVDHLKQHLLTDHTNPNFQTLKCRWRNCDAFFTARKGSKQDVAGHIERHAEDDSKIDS

[3] = molecular target: T2, Zfp106; assay: competition; 30x molar excess vs r(GGGGCC)4 probe; EMSA: 40 mM Tris-Cl pH 8.0, 30 mM KCl, 1 mM MgCl2, 0.01% NP-40, 1 mM DTT, 5% glycerol, 10 ug/ml BSA, 30 min room temperature; pull-down: nuclear extract in 50 mM Tris pH 7.4, 150 mM NaCl, 1 mM EDTA, 0.5% NP-40, 4 h at 4 C; details: protein: recombinant, tags: N-terminal 3xFLAG-2xSTREP
[4] = molecular target: T1, MBNL1; assay: EMSA; 1 mM Mg2+; competed by 30x unlabeled self; EMSA: 40 mM Tris-Cl pH 8.0, 30 mM KCl, 1 mM MgCl2, 0.01% NP-40, 1 mM DTT, 5% glycerol, 10 ug/ml BSA, 30 min room temperature; pull-down: nuclear extract in 50 mM Tris pH 7.4, 150 mM NaCl, 1 mM EDTA, 0.5% NP-40, 4 h at 4 C; details: protein: recombinant; tags: N-terminal 3xFLAG-2xSTREP; label: 5' 32P (probe)

GGGGCCGGGGCCGGGGCCGGGGCC (ssRNA) [r(GGGGCC)4]: no binding [1]; binds [2].

AAAACCAAAACCAAAACCAAAACC (ssRNA) [r(AAAACC)4]: no binding [3].

GAGGCCGGGACCGAGACCGAGGCC (ssRNA) [mutated r(GGGGCC)4 (mut)]: no binding [3].

CUGCUGCUGCUGCUGCUGCUGCUG (ssRNA) [r(CUG)8]: no binding ([3]; label: 5' 32P (probe)); binds [4].
